The target in one assay is T1, IL-4R on cells (human, UniProt P24394 26-825).
T1 sequence (looked up): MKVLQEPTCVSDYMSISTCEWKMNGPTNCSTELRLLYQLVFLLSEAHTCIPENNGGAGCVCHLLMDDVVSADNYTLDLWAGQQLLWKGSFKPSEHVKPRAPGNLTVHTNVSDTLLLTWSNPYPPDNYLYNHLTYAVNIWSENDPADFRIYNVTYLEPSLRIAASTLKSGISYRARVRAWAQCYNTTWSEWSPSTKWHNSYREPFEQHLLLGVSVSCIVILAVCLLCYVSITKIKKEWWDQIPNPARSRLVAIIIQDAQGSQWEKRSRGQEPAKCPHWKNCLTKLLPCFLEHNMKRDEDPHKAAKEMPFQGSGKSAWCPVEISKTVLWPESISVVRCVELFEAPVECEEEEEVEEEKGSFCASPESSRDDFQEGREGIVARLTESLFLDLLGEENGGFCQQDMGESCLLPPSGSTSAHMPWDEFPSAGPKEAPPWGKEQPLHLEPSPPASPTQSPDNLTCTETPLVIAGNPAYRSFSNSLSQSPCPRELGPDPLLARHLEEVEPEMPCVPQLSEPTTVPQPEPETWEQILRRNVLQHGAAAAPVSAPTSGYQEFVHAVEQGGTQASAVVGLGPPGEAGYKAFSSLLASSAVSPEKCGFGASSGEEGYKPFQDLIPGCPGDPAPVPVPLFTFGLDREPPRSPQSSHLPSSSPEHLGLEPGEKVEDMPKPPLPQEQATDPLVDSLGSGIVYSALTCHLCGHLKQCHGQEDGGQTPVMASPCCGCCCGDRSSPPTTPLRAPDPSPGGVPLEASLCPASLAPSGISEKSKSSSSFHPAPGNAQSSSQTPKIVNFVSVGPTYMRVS
Description: cell-based or functional assay.

The target of assay [1] is T2, IL-4R (recombinant protein) (human, UniProt P24394 26-232, biotinylated (Acro Biosystems ILR-H82E9) in the ELISA).
T2 construct: Bought recombinant IL-4R; also called IL-4 receptor; IL-4R molecule
T2 sequence (looked up): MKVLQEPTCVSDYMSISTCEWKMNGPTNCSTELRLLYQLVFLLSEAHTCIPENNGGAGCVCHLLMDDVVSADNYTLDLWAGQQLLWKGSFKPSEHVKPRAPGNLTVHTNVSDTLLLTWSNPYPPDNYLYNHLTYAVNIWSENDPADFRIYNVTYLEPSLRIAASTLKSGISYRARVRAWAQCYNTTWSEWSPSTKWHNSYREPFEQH
In words: ELISA, periplasmic extract captured by anti-c-Myc, 50 nM biotinylated IL-4R against MBP.

The target of assay [2] is T2, IL-4R (recombinant protein). In words: SPR. (SPR reads the build-up and loss of mass on a sensor chip optically.)

Where a chain is given by its changes, count along the chain named. Names may count otherwise.

B1: H5 nanobody (VHH)
VHH: QVQLVESGGGSVQAGGSLRLSCAASGSISSITYLGWFRQAPGKEREGVAALSTSSGTTYYADSVKGRFTVSLDNAKNTVYLQMNSLKPEDTALYYCAAADKGREYTLARAKYWYWGQGTQVTVSA
notes: Synthetic nanobody (sybody, convex scaffold) expressed from pSBinit in E. coli and purified on TALON resin; It was detected with anti-Myc, so the tested protein probably carries Myc/His tags; also called WT H5; H5 wild-type nanobody
Broadly, the Kd is the concentration at which binding is half-saturated. For B1, the “IL-4 signal blocking in STAT6-luciferase reporter cells (667 pM IL-4, 24 hours)” value in the assay with IL-4R on cells was ~2 fold concentration relative to dupilumab. Also, the “fold-change of OD values for IL-4R and MBP” value in assay [1] is > 1.7 fold. Further, in assay [2], the Kd stood at 1420 nM.

B2: H5 E104R (VHH)
VHH: B1 VHH with E104R
notes: also called H5 E104R mutant
On to B2, for which the equilibrium dissociation constant (Kd) in assay [2] is 1.06 nM.

B3: H5 A110Y (VHH)
VHH: B1 VHH with A110Y
notes: also called H5 A110Y mutant
For B3, the Kd in assay [2] was determined as 708 nM.
